Reference: patent publication US20170248602A1 (ALLERGAN, published 2017)

B1: α-SNAP-25 mouse monoclonal antibody 1D3B8 (antibody, V domains shown)
VH: QVKLQESGAELVKPGASVKISCKASGYIFTDHALHWVRQKPEQGLEWIGYIFPGNGNIEYNEKFKGKATLTADKSSSTAYMQLNSLTSGDSAMYFCKKMDYWGQGTTVTVSS
VL: DVLMTQTPLSLPVSLGDQASISCRSSQSIVHSNGNTYLEWYLQKPGQSPKLLIYKVSNRFSGVPDRFSGSGSGTDFTLKISRVEAEDLGVYYCFQGSHVPPTFGAGTKLELKR
B2: α-SNAP-25 mouse monoclonal antibody 2E2A6 (antibody, V domains shown)
VH: QVQLQQSDAELVKPGASVKISCRASGYTFTDHSIHWVKQQPGQGLEWIGYIFPGNGNIEYNDKFKGKATLTADKSSGTAYMQLNSLTSEDSAVYFCKRMGYWGQGTSVTVSS
VL: DVLMTQTPLTLSVTIGQPASISCKSSQSLLYTNGKTYLTWLFQRPGQSPKRLIYLVSELDSGVPDRFSGSGSGTDFTLEITRVEAEDLGVYYCLQSAHFPFTFGSGTKLEIKR
B3: α-SNAP-25 mouse monoclonal antibody 3C1A5 (antibody, V domains shown)
VH: QVKLQESGAELVKPGASVKISCKASGYTFTDHSIHWVKQKPGQGLEWIGYLFPGNGNFEYNEKFKGKATLTADKSSSTVYMYLNSLTSEDSAVYFCKRMGYWGQGTTVTVSS
VL: DVVMTQTPLTLSVTIGQPASISCKSSQSLLNTNGKTYLTWLIQRPGQSPQRLIYLVSKLDSGVPDRFSGSGSGTDFTLKISRVEAEDLGVYYCLQSSHFPFTFGSGTKLEIKR

target: T1, SNAP-25206 uncleaved substrate in PC12 cells (rat (PC12 cells), UniProt P60881 1-206); experiment: cell-based assay: Western blot of PC12 lysates, ascites 1:100
T1 construct: also called uncleaved SNAP-25
T1 sequence (P60881 whole entry): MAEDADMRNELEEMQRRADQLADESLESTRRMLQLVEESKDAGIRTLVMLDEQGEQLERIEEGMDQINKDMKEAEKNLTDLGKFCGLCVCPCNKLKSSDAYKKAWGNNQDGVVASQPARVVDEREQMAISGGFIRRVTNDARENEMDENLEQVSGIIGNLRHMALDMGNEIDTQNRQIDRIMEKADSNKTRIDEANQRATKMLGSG

Binder	binding result
B1	no binding
B2	no binding
B3	no binding
